Measurements as given in patent US5604203A, “Analogs of peptide YY and uses thereof” (University of Cincinnati, priority 1994, dated 1997).
Where two headings read alike, the source gives them in different places. One block for each molecule: values may come before it. Square brackets hold non-standard residues; d marks the D form. Peptide text beside a SMILES is read from it. Phe(4-Cl) = N[C@@H](Cc1ccc(Cl)cc1)C(=O)O

Assays:
rat jejunal mucosa [1] = test: Short circuit current (SCC) in voltage clamped rat jejunal mucosa (antisecretory effect); assay type: cell-based; conditions: for EC50: Table 1, reduction of baseline SCC, rat jejunum, mean of three separate experiments
Method: The antisecretory effects of the peptides were investigated by measuring the short-circuit current (SCC) in rat jejunal mucosa mounted in a Ussing chamber and automatically voltage clamped as described by Cox et al. (J. Physiol. supra). Briefly, strips of mucosa were placed between two halves of perspex Ussing chambers (window size, 0.6 cm^2) containing oxygenated (95% O2 /5% CO2) Krebs-Henseleit solution (NaCl, 117 mM, KCl 4.7 mM, CaCl2, 2.5 mM; MgSO4 1.2 mM, NaHCO3 24.8 mM and glucose 11.1 mM), pH 7.4, 37° C. […] Once a stable baseline SCC was reached, peptides were added to the basolateral reservoir only, and cumulative concentration-response profiles constructed.

[2] = target: T1, intestinal PYY-preferring receptors (Rattus norvegicus, UniProt Q9ERC0); conditions: BINDING IC50 (nM), Table 1; 125I-PYY, rat jejunal membranes; mean of three separate experiments
T1 sequence (Q9ERC0 1-381): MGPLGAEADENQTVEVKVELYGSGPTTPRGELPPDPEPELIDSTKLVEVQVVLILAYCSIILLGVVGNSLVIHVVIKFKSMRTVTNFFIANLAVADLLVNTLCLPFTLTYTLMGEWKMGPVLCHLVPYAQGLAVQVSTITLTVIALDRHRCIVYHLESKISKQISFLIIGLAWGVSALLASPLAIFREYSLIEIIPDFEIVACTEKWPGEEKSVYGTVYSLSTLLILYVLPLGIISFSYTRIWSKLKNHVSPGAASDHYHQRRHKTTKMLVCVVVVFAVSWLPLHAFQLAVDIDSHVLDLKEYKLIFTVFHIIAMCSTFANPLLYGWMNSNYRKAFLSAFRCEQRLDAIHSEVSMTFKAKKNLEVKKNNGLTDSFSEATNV
Method: Bound and free peptides were separated by centrifugation at 20,000×g for 10 min.
All points in the binding experiments are the mean of at least three experiments performed in duplicate.

[3] = target: PYY receptor of rat jejunal epithelial plasma membranes (rat)
[4] = target: PYY receptor of rat jejunal epithelial plasma membranes (rat); test: competition with 125I-PYY on rat jejunal membranes
[5] = target: PYY receptor of rat jejunal epithelial plasma membranes (rat); test: competition with 125I-PYY on rat jejunal epithelial plasma membranes
[6] = target: PYY receptor of rat jejunal epithelial plasma membranes (rat); test: competition with 0.05 nM 125I-PYY on rat jejunal epithelial plasma membranes
[7] = target: PYY receptor of rat jejunal epithelial plasma membranes (rat); remark: listed apart in the source
[8] = target: PYY receptor of rat jejunal epithelial plasma membranes (rat); remark: listed apart in the source
[9] = target: PYY receptor of rat jejunal epithelial plasma membranes (rat); test: competitive binding, done as described above (125I-PYY, rat jejunal membranes)
rat jejunal mucosa [10] = conditions: Cox et al. Peptides, supra; cited from earlier work

Molecule: CC(=O)N[C@@H](C)C(=O)N[C@@H](CO)C(=O)N[C@@H](CC(C)C)C(=O)N[C@@H](CCCNC(=N)N)C(=O)N[C@@H](Cc1ccc(Cl)cc1)C(=O)N[C@@H](Cc1ccc(O)cc1)C(=O)N[C@@H](CC(C)C)C(=O)N[C@@H](CC(N)=O)C(=O)N[C@@H](CC(C)C)C(=O)N[C@H](C(=O)N[C@H](C(=O)N[C@@H](CCCNC(=N)N)C(=O)N[C@@H](CCC(N)=O)C(=O)N[C@@H](CCCNC(=N)N)C(=O)N[C@@H](Cc1ccc(O)cc1)C(N)=O)[C@@H](C)O)C(C)C [N-α-Ac-[p.ClPhe^26]PYY(22-36), N-α-Ac-A S L R [p.Cl.Phe^26] Y L N L V T R Q R] (HELM PEPTIDE1{[ac].A.S.L.R.[O=C([C@H](Cc1ccc(Cl)cc1)N[*:1])[*:2]].Y.L.N.L.V.T.R.Q.R.Y.[am]}$$$$V2.0)
EC50 (rat jejunal mucosa [1]): 124 nM
IC50 [2]: 50 nM

EC50 (rat jejunal mucosa [1]): 15.1 nM
Molecule: Ac-ASLRHFLNLVTRQRY-NH2 [N-α-Ac-[Phe^27]PYY(22-36)]
maximal inhibitory response (change in SCC) (rat jejunal mucosa [1]; 1.4 μM, n=7): -12.0±1.3 μA/0.6 cm^2
times less potent than the intact hormone (antisecretory potency) (rat jejunal mucosa [1]; relative to PYY): 9 times

EC50 (rat jejunal mucosa [1]): 3000 nM
IC50 [2]: 44.7 nM
Molecule: Ac-ASLRHYENLVTRQRY-NH2 [N-α-Ac-[Glu^28]PYY(22-36), N-α-Ac-A S L R H Y [Glu] N L V T R Q R Y--NH2]

SCC EC50 [3]: 40 nM
IC50 [4]: 0.08 nM
fold increase of receptor affinity against PYY(22-36) [5]: 4 times
IC50 [6]: 1.12 nM
Molecule: N-α-Ac-PYY(22-36) (peptide)

SCC EC50 [3]: 19500 nM
SCC EC50 [7]: > 30000 nM
Molecule: N-α-naphthaleneacetyl-PYY(22-36) (peptide)

SCC EC50 [3]: 1.7 nM
maximal inhibitory response of SCC [8]: -12.6 µA/0.6 cm^2
SCC EC50 of PYY after treatment of the tissue with the analog (1 µM) [7]: 4.4 nM
SCC EC50 of PYY, nontreated controls [7]: 2.6 nM
IC50 [4]: 0.04 nM
IC50 [6]: 0.2 nM
IC50 [9]: 0.1 nM
Molecule: PYY (peptide YY) (ligand)

Molecule: [Pro^34 ]NPY: Y-1 selective agonist
sensitivity of rat jejunal epithelial receptors to agonist (rat jejunal mucosa [10]): completely insensitive

SCC EC50 [3]: 15.1 nM
antisecretory potency against PYY (times less potent than PYY) [8]: 9
maximal inhibitory response of SCC [8]: -12 µA/0.6 cm^2
percent increase of receptor affinity against N-α-Ac-PYY(22-36) [5]: 28%
IC50 [6]: 0.8 nM
Molecule: Ac-ASLRHFLNLVTRQRY-NH2 [N-α-Ac-[Phe^27 ]PYY(22-36)]

IC50 [9]: 4.5 nM
B1: N-α-Ac-[Thz^26, Phe^27 ]PYY(22-36) (peptide)
peptide: ASLRXFLNLVTRQRY
HELM: PEPTIDE1{[ac].A.S.L.R.[O=C([C@H](Cc1cscn1)N[*:1])[*:2]].F.L.N.L.V.T.R.Q.R.Y.[am]}$$$$V2.0
SMILES: CC(=O)N[C@@H](C)C(=O)N[C@@H](CO)C(=O)N[C@@H](CC(C)C)C(=O)N[C@@H](CCCNC(=N)N)C(=O)N[C@@H](Cc1cscn1)C(=O)N[C@@H](Cc1ccccc1)C(=O)N[C@@H](CC(C)C)C(=O)N[C@@H](CC(N)=O)C(=O)N[C@@H](CC(C)C)C(=O)N[C@H](C(=O)N[C@H](C(=O)N[C@@H](CCCNC(=N)N)C(=O)N[C@@H](CCC(N)=O)C(=O)N[C@@H](CCCNC(=N)N)C(=O)N[C@@H](Cc1ccc(O)cc1)C(N)=O)[C@@H](C)O)C(C)C

SCC EC50 [3]: 3000 nM
IC50 [6]: 44.7 nM
Molecule: Ac-ASLRHYENLVTRQRY-NH2 [N-α-Ac-[Glu^28 ]PYY(22-36)]

IC50 [9]: 11.2 nM
Molecule: FSLRHFLNLVTRQRY (not fully specified; N-terminal acetyl; C-terminal amide) [N-α-Ac-[Phe^22,27 ]PYY(22-36)]

IC50 [9]: 1.58 nM
Molecule: Ac-ASLRH[Phe(4-Cl)]LNLVTRQRY-NH2 [N-α-Ac-[Pcp^27 ]PYY(22-36)]

IC50 [9]: 0.1 nM
Molecule: Ac-YSLRHFLNLVTRQRY-NH2 [N-α-Ac-[Tyr^22, Phe^27 ]PYY(22-36)]

SCC EC50 [3]: 124 nM
IC50 [6]: 50 nM
B2: N-α-Ac-[p.ClPhe^26 ]PYY(22-36) (peptide)
peptide: ASLRXYLNLVTRQRY
HELM: PEPTIDE1{[ac].A.S.L.R.[O=C([C@H](Cc1ccc(Cl)cc1)N[*:1])[*:2]].Y.L.N.L.V.T.R.Q.R.Y.[am]}$$$$V2.0
SMILES: CC(=O)N[C@@H](C)C(=O)N[C@@H](CO)C(=O)N[C@@H](CC(C)C)C(=O)N[C@@H](CCCNC(=N)N)C(=O)N[C@@H](Cc1ccc(Cl)cc1)C(=O)N[C@@H](Cc1ccc(O)cc1)C(=O)N[C@@H](CC(C)C)C(=O)N[C@@H](CC(N)=O)C(=O)N[C@@H](CC(C)C)C(=O)N[C@H](C(=O)N[C@H](C(=O)N[C@@H](CCCNC(=N)N)C(=O)N[C@@H](CCC(N)=O)C(=O)N[C@@H](CCCNC(=N)N)C(=O)N[C@@H](Cc1ccc(O)cc1)C(N)=O)[C@@H](C)O)C(C)C
